From patent US11471462B2, “Compositions and methods for detecting and treating diabetes” (THE BROAD INSTITUTE, INC., priority 2016, dated 2022)

Test system: SLC16A11
Assay: SLC16A11 protein-protein interaction study (immunoprecipitation, quantitative mass spectrometry)
Set-up: species or system human
Conditions: putative SLC16A11^REF interaction partners; immunoprecipitation from HEK293T cells vs empty vector control; Blandt-Altman

| Molecule | BA log fold change |
| --- | --- |
| QIL1 (protein) MVARVWSLMRFLIKGSVAGGAVYLVYDQELLGPSDKSQAALQKAGEVVPPAMYQFSQYVCQQTGLQIPQLPAPPKIYFPIRDSWNAGIMTVMSALSVAPSKAREYSKEGWEYVKARTK | 1.08 |
| DNAJC7 (protein) AAAAECDVVMAATEPELLDDQEAKREAETFKEQGNAYYAKKDYNEAYNYYTKAIDMCPKNASYYGNRAATLMMLGRFREALGDAQQSVRLDDSFVRGHLREGKCHLSLGNAMAACRSFQRALELDHKNAQAQQEFKNANAVMEYEKIAETDFEKRDFRKVVFCMDRALEFAPACHRFKILKAECLAMLGRYPEAQSVASDILRMDSTNADALYVRGLCLYYEDCIEKAVQFFVQALRMAPDHEKACIACRNAKALKAKKEDGNKAFKEGNYKLAYELYTEALGIDPNNIKTNAKLYCNRGTVNSKLRKLDDAIEDCTNAVKLDDTYIKAYLRRAQCYMDTEQYEEAVRDYEKVYQTEKTKEHKQLLKNAQLELKKSKRKDYYKILGVDKNASEDEIKKAYRKRALMHHPDRHSGASAEVQKEEEKKFKEVGEAFTILSDPKKKTRYDSGQDLDEEGMNMGDFDPNNIFKAFFGGPGGFSFEASGPGNFFFQFG | 1.05 |
| TUBA1C (protein) MTAWFNGVEELGRDECFVCLELDPSNGSFLNAKLYISNWILIYFTRTLQLPAPFNTCTSSKSRGEPGCDSKRECISIHVGQAGVQIGNACWELYCLEHGIQPDGQMPSDKTIGGGDDSFNTFFSETGAGKHVPRAVFVDLEPTVIDEVRTGTYRQLFHPEQLITGKEDAANNYARGHYTIGKEIIDLVLDRIRKLADQCTGLQGFLVFHSFGGGTGSGFTSLLMERLSVDYGKKSKLEFSIYPAPQVSTAVVEPYNSILTTHTTLEHSDCAFMVDNEAIYDICRRNLDIERPTYTNLNRLISQIVSSITASLRFDGALNVDLTEFQTNLVPYPRIHFPLATYAPVISAEKAYHEQLTVAEITNACFEPANQMVKCDPRHGKYMACCLLYRGDVVPKDVNAAIATIKTKRTIQFVDWCPTGFKVGINYQPPTVVPGGDLAKVQRAVCMLSNTTAVAEAWARLDHKFDLMYAKRAFVHWYVGEGMEEGEFSEAREDMAALEKDYEEVGADSADGEDEGEEY | 1.04 |
| BRAT1 (protein) MDPECAQLLPALCAVLVDPRQPVADDTCLEKLLDWFKTVTEGESSVVLLQEHPCLVELLSHVLKVQDLSSGVLSFSLRLAGTFAAQENCFQYLQQGELLPGLFGEPGPLGRATWAVPTVRSGWIQGLRSLAQHPSALRFLADHGAVDTIFSLQGDSSLFVASAASQLLVHVLALSMRGGAEGQPCLPGGDWPACAQKIMDHVEESLCSAATPKVTQALNVLTTTFGRCQSPWTEALWVRLSPRVACLLERDPIPAAHSFVDLLLCVARSPVFSSSDGSLWETVARALSCLGPTHMGPLALGILKLEHCPQALRTQAFQVLLQPLACVLKATVQAPGPPGLLDGTADDATTVDTLLASKSSCAGLLCRTLAHLEELQPLPQRPSPWPQASLLGATVTVLRLCDGSAAPASSVGGHLCGTLAGCVRVQRAALDFLGTLSQGTGPQELVTQALAVLLECLESPGSSPTVLKKAFQATLRWLLSSPKTPGCSDLGPLIPQFLRELFPVLQKRLCHPCWEVRDSALEFLTQLSRHWGGQADFRCALLASEVPQLALQLLQDPESYVRASAVTAMGQLSSQGLHAPTSPEHAEARQSLFLELLHILSVDSEGFPRRAVMQVFTEWLRDGHADAAQDTEQFVATVLQAASRDLDWEVRAQGLELALVFLGQTLGPPRTHCPYAVALPEVAPAQPLTEALRALCHVGLFDFAFCALFDCDRPVAQKSCDLLLFLRDKIASYSSLREARGSPNTASAEATLPRWRAGEQAQPPGDQEPEAVLAMLRSLDLEGLRSTLAESSDHVEKSPQSLLQDMLATGGFLQGDEADCY | 1.04 |
| HEATR2 (protein) AALGVAEAVAAPHPAEGAETAEAVELSRALSRLLPGLEADSKPGRRRALEALRRALEEPGPAADPTAFQGPWARLLLPRLLRCLSDPAEGCRALAVHLLDLGLRRAARPRDALPRLLPALAARLAGPVPARRPPEACEELRLALVQLLGLAVDLCGAALAPHLDDALRALRCSLLDPFAAVRRESCSCAAALAQATPDHFHMQSESLIGPLMQTISHQHWKVRVAAIEATGAVIHFGNGKSVDDVLSHFAQRLFDDVPQVRRAVASVVGGWLLCLRDRYSFFHKLIPLLLSSLNDEVPEVRQLAASLWEDVGLQWQKENEEDLKDKLDFAPPTPPHYPPHERRPVLGCRELVFRNLSKILPALCHDITDWVVGTRVKSAQLLPVLLLHAEDHATQHLEVVLRTLFQACTDEEAAVVQSCTRSAELVGTFVSPEVFLKLILSTLKKTPSASGLLVLASAMRGCPREALQPHLAAIATELAQAHICQASENDLYLERLLLCVQALVSVCHEDCGVASLQLLDVLLTIVALAGATGLRDKAQETMDSLAMVEGVSSCQDLYRKHIGPLLERVTASHLDWTAHSPELLQFSVIVAQSGPALGEALPHVVPTLRACLQPSQDPQMRLKLFSILSTVLLRATDTINSQGQFPSYLETVTKDILAPNLQWHAGRTAAAIRTAAVSCLWALTSSEVLSAEQIRDVQETLMPQVLTTLEEDSKMTRLISCRIINTFLKTSGGMTDPEKLIRIYPELLKRLDDVSNDVRMAAASTLVTWLQCVKGANAKSYYQSSVQYLYRELLVHLDDPERAIQDAILEVLKEGSGLFPDLLVRETEAVIHKHRSATYCEQLLQHVQAVPATQ | 1.03 |
| TUBA4A (protein) MRECISVHVGQAGVQMGNACWELYCLEHGIQPDGQMPSDKTIGGGDDSFTTFFCETGAGKHVPRAVFVDLEPTVIDEIRNGPYRQLFHPEQLITGKEDAANNYARGHYTIGKEIIDPVLDRIRKLSDQCTGLQGFLVFHSFGGGTGSGFTSLLMERLSVDYGKKSKLEFSIYPAPQVSTAVVEPYNSILTTHTTLEHSDCAFMVDNEAIYDICRRNLDIERPTYTNLNRLISQIVSSITASLRFDGALNVDLTEFQTNLVPYPRIHFPLATYAPVISAEKAYHEQLSVAEITNACFEPANQMVKCDPRHGKYMACCLLYRGDVVPKDVNAAIAAIKTKRSIQFVDWCPTGFKVGINYQPPTVVPGGDLAKVQRAVCMLSNTTAIAEAWARLDHKFDLMYAKRAFVHWYVGEGMEEGEFSEAREDMAALEKDYEEVGIDSYEDEDEGEE | 1.02 |
| STT3A (protein) MTKFGFLRLSYEKQDTLLKLLILSMAAVLSFSTRLFAVLRFESVIHEFDPYFNYRTTRFLAEEGFYKFHNWFDDRAWYPLGRIIGGTIYPGLMITSAAIYHVLHFFHITIDIRNVCVFLAPLFSSFTTIVTYHLTKELKDAGAGLLAAAMIAVVPGYISRSVAGSYDNEGIAIFCMLLTYYMWIKAVKTGSICWAAKCALAYFYMVSSWGGYVFLINLIPLHVLVLMLTGRFSHRIYVAYCTVYCLGTILSMQISFVGFQPVLSSEHMAAFGVFGLCQIHAFVDYLRSKLNPQQFEVLFRSVISLVGFVLLTVGALLMLTGKISPWTGRFYSLLDPSYAKNNIPIIASVSEHQPTTWSSYYFDLQLLVFMFPVGLYYCFSNLSDARIFIIMYGVTSMYFSAVMVRLMLVLAPVMCILSGIGVSQVLSTYMKNLDISRPDKKSKKQQDSTYPIKNEVASGMILVMAFFLITYTFHSTWVTSEAYSSPSIVLSARGGDGSRIIFDDFREAYYWLRHNTPEDAKVMSWWDYGYQITAMANRTILVDNNTWNNTHISRVGQAMASTEEKAYEIMRELDVSYVLVIFGGLTGYSSDDINKFLWMVRIGGSTDTGKHIKENDYYTPTGEFRVDREGSPVLLNCLMYKMCYYRFGQVYTEAKRPPGFDRVRNAEIGNKDFELDVLEEAYTTEHWLVRIYKVKDLDNRGLSRT | 1.27 |
| DNAJC3 (protein) GVNADVEKHLELGKKLLAAGQLADALSQFHAAVDGDPDNYIAYYRRATVFLAMGKSKAALPDLTKVIQLKMDFTAARLQRGHLLLKQGKLDEAEDDFKKVLKSNPSENEEKEAQSQLIKSDEMQRLRSQALNAFGSGDYTAAIAFLDKILEVCVWDAELRELRAECFIKEGEPRKAISDLKAASKLKNDNTEAFYKISTLYYQLGDHELSLSEVRECLKLDQDHKRCFAHYKQVKKLNKLIESAEELIRDGRYTDATSKYESVMKTEPSIAEYTVRSKERICHCFSKDEKPVEAIRVCSEVLQMEPDNVNALKDRAEAYLIEEMYDEAIQDYETAQEHNENDQQIREGLEKAQRLLKQSQKRDYYKILGVKRNAKKQEIIKAYRKLALQWHPDNFQNEEEKKKAEKKFIDIAAAKEVLSDPEMRKKFDDGEDPLDAESQQGGGGNPFHRSWNSWQGFNPFSSGGPFRFKFHFN | 1.22 |
| SEC61A1 (protein) MTQTARVLVKFLEVIKPFCVILPEIQKPERKIQFKEKVLWTAITLFIFLVCCQIPLFGIMSSDSADPFYWMRVILASNRGTLMELGISPIVTSGLIMQLLAGAKIIEVGDTPKDRALFNGAQKLFGMIITIGQSIVYVMTGMYGDPSEMGAGICLLITIQLFVAGLIVLLLDELLQKGYGLGSGISLFIATNICETIVWKAFSPTTVNTGRGMEFEGAIIALFHLLATRTDKVRALREAFYRQNLPNLMNLIATIFVFAVVIYFQGFRVDLPIKSARYRGQYNTYPIKLFYTSNIPIILQSALVSNLYVISQMLSARFSGNLLVSLLGTWSDTSSGGPARAYPVGGLCYYLSPPESFGSVLEDPVHAVVYIVFMLGSCAFFSKTWIEVSGSSAKDVAKQLKEQQMVMRGHRETSMVHELNRYIPTAAAFGGLCIGALSVLADFLGAIGSGTGILLAVTIIYQYFEIFVKEQSEVGSMGALLF | 1.84 |
| DHCR7 (protein) MAAKSQPNIPKAKSLDGVTNDRTASQGQWGRAWEVDWFSLASVIFLLLFAPFIVYYFIMACDQYSCALTGPVVDIVTGHARLSDIWAKTPPITRKAAQLYTLWVTFQVLLYTSLPDFCHKFLPGYVGGIQEGAVTPAGVVNKYQINGLQAWLLTHLLWFANAHLLSWFSPTIIFDNWIPLLWCANILGYAVSTFAMVKGYFFPTSARDCKFTGNFFYNYMMGIEFNPRIGKWFDFKLFFNGRPGIVAWTLINLSFAAKQRELHSHVTNAMVLVNVLQAIYVIDFFWNETWYLKTIDICHDHFGWYLGWGDCVWLPYLYTLQGLYLVYHPVQLSTPHAVGVLLLGLVGYYIFRVANHQKDLFRRTDGRCLIWGRKPKVIECSYTSADGQRHHSKLLVSGFWGVARHFNYVGDLMGSLAYCLACGGGHLLPYFYIIYMAILLTHRCLRDEHRCASKYGRDWERYTAAVPYRLLPGIF | 1.69 |
| EMC3 (protein) AGPELLLDSNIRLWVVLPIVIITFFVGMIRHYVSILLQSDKKLTQEQVSDSQVLIRSRVLRENGKYIPKQSFLTRKYYFNNPEDGFFKKTKRKVVPPSPMTDPTMLTDMMKGNVTNVLPMILIGGWINMTFSGFVTTKVPFPLTLRFKPMLQQGIELLTLDASWVSSASWYFLNVFGLRSIYSLILGQDNAADQSRMMQEQMTGAAMAMPADTNKAFKTEWEALELTDHQWALDDVEEELMAKDLHFEGMFKKELQTSIF | 1.65 |
